Two molecules from patent publication US20240382561A1, “GLUCOREGULATORY COMPOUND, COMPOSITION AND USES THEREOF” (THE HONG KONG POLYTECHNIC UNIVERSITY, priority 2021, published 2024) can be followed below.

The subject of experiment [1] is db/db mice. Nature of the experiment: Acute glucose tolerance test after i.p. injection of human CYSTM1 in db/db mice. The format is in vivo, mouse. The conditions noted are these: acute i.p. injection 1 mg/kg BW, vs PBS.
The test system of experiment [2] is mouse primary adipocytes. Put plainly: 2-NBDG glucose uptake in mouse primary adipocytes. The format is cell-based. Particulars: mouse primary adipocytes, CYSTM1 1-1000 nM, 1 h. As to the method: (§1) To determine whether CYSTM1 can increase glucose uptake in adipocytes, in vitro assays of 2-NBDG uptake in response to CYSTM1 treatment and potential inhibitors in 3T3-L1 adipocytes and mouse primary adipocytes were performed. 3T3-L1 preadipocytes were maintained in Dulbecco's modified Eagle's medium (DMEM) supplemented with 10% fetal bovine serum. Two days after confluence, 3T3-L1 cells were induced to differentiation using the standard adipogenic cocktail (0.5 mM IBMX, 1 μM dexamethasone and 10 μg/ml insulin) that was applied for 4 days and followed by 10 μg/ml insulin treatment for additional 4 days. The culture medium was changed every other day. The differentiated cells were maintained in normal serum containing DMEM. Mouse primary adipocytes were isolated from 10 to 12-week-old male C57BL/6J mice using a collagenase digestion protocol as described, briefly, white fat pads were removed, minced and digested using collagenase for 60-90 min at 37° C. in Krebs-Ringers phosphate HEPES buffer (KRPH) (15 mM HEPES, pH 7.4, 118 mM NaCl, 4.8 mM KCl, 1.2 mM MgSO4, 1.3 mM CaCl2, 1.2 mM KHPO3, 0.1% BSA). The stromal vascular fraction was separated from the adipocytes and cultured using DMEM and differentiated the same as 3T3-L1 adipocytes as described above. […] NBDG uptake was measured using a fluorescent microplate reader (Thermo Scientific Varioskan LUX Multimode Microplate Reader).

The test system of experiment [3] is MIN6 pancreatic beta cell. Put plainly: Insulin secretion in MIN6 cells with GLP-1R antagonist exendin (9-39). The format is cell-based, mouse. The conditions noted are these: CYSTM1 10 nM, exendin (9-39) 10 nM.
In experiment [4] the test system is diet-induced obesity and diabetes mouse model. Put plainly: Acute glucose tolerance test after i.p. injection or oral gavage of recombinant CYSTM1 in high-fat diet mice. The format is in vivo. Particulars: 1 h before GTT, obese mice, vs PBS. As to the method:
In this example, an acute intraperitoneal (i.p.) glucose tolerance test (GTT) was performed using different administration methods of delivering recombinant CYSTM1 proteins. 8-week-old male C57BL/6J mice fed a high-fat diet for 12 weeks (diet-induced obesity and diabetes mouse model) were treated with different concentrations of CYSTM1 through i.p. injection (FIG. 3A-3C) or oral administration (FIGS. 3D-3F) for 1 h following a GTT by intraperitoneal injections of […]. Circulating CYSTM1 and insulin levels were determined by enzyme-linked immunosorbent assay (ELISA) (ImmunoDiagnostics, Hong Kong), and the glucose level was determined by a glucometer (Roche Diabetes Care, Indianapolis, IN, USA). […] As human and mouse CYSTM1 share high identity (89.4%) and similarity (90.4%), and human CYSTM1 appears to also lower circulating glucose in the db/db mice (a genetic mouse model of obesity and diabetes), it could be expected that human CYSTM1 may also function similarly with respect to human circulating glucose in an obese, diabetic human subject.

Experiment [5] deals with isolated pancreatic islet cells. Nature of the experiment: Insulin secretion from mouse isolated pancreatic islets. It counts as cell-based. The conditions noted are these: CYSTM1 1-1000 nM, 5.6 mM then 16.7 mM glucose, 45 min. As to the method:
(§2) FIGS. 6A-6C show the change in insulin secretion from different pancreatic cells in a low (5.6 mM) and high (16.7 mM) glucose level treated by different concentrations of CYSTM1: FIG. 6A: MIN6 cells; FIG. 6B: β-TC-6 cells; FIG. 6C: mouse-isolated pancreatic islets (n=5-6 per cell type);
(§3) In this example, in vitro assays of insulin secretion in response to CYSTM1 treatment in low and high-glucose environments on the pancreatic cell lines (MIN6 and B-TC-6) and mouse isolated pancreatic islets were performed. Mouse insulinoma, MIN6 cells, were cultured in DMEM (Gibco) supplemented with 10% (v/v) FBS (Lonza), 100 U/mL penicillin and […], and 70 μM freshly added β-mercaptoethanol (Gibco) (37° C., 5% CO2). B-TC-6 cells were grown in RPMI 1640 medium (Gibco) containing 5.5 mM glucose and supplemented with 10% (v/v) FBS, 100 U/mL penicillin and […], and 2 mM L-glutamine. […] Following 45 min incubation of KRB solution, each well was removed and the insulin content of each sample was determined by a mouse insulin ELISA kit. The efficacy of CYSTM1 to stimulate insulin secretion was evaluated in each of the pancreatic cell lines: MIN6 cells (FIG. 6A), B-TC-6 cells (FIG. 6B), and isolated pancreatic islet cells (FIG. 6C).

Experiment [6] relates to MIN6 cells. Put plainly: Insulin secretion from MIN6 cells at low and high glucose. The format is cell-based, mouse. Particulars: CYSTM1 1-1000 nM, 5.6 mM or 16.7 mM glucose, 45 min. The protocol: as §2, §3
Experiment [7] deals with 3T3-L1 adipocytes. Put plainly: 2-NBDG glucose uptake in 3T3-L1 adipocytes. The conditions noted are these: 3T3-L1 adipocytes, CYSTM1 1-1000 nM, 1 h. It counts as cell-based. The protocol: as §1
For experiment [8], the system named is B-TC-6 cells. Nature of the experiment: Insulin secretion from B-TC-6 cells at low and high glucose. The format is cell-based. Particulars: CYSTM1 1-1000 nM, 5.6 mM or 16.7 mM glucose, 45 min. As to the method: as §2, §3
Experiment [9] has as its system STZ-induced diabetic male mice. Nature of the experiment: Daily oral CYSTM1 in STZ-induced diabetic mice. It counts as in vivo, mouse. The conditions noted are these: vs saline. The protocol:
Turning to FIG. 7J, standard chow diet (STC) mice were injected with streptozotocin (STZ) to induce diabetes for five days and then treated with either CYSTM1 protein (1 mg/kg) or saline daily. The group of mice treated with saline were regarded as the control group.

The subject of experiment [10] is high fat diet-induced obese (HFD) mice. Put plainly: Chronic daily oral gavage of CYSTM1 in high-fat diet-induced obese mice. The format is in vivo, mouse. As to the method:
In this example, 8-week-old male C57BL/6J mice fed with a high-fat diet (HFD) were treated daily with an oral gavage of recombinant CYSTM1 protein (1 mg/kg), and the control group of mice were gavaged with saline daily. CYSTM1 treatment was carried out after 8 weeks of HFD feeding (FIG. 4A).

Setting [11] is: i.p. injection of CYSTM1 (0.5 and 1 mg/kg BW).
[12] abbreviates: oral gavage of CYSTM1 1 mg/kg BW.

B1: cysteine rich transmembrane module containing 1 (protein, UniProt Q9H1C7 1-97, looked up)
Cysteine-rich and …: MNQENPPPYPGPGPTAPYPPYPPQPMGPGPMGGPYPPPQGYPYQGYPQYGWQGGPQEPPKTTVYVVEDQRRDELGPSTCLTACWTALCCCCLWDMLT
notes: human CYSTM1, 97 amino acid long peptide
B1: the “glucose levels (GTT)” value in experiment [1] is “lower glucose levels”.

B2: cysteine rich transmembrane module containing 1 (protein, UniProt Q8K353 1-104, looked up)
Cysteine-rich and …: MNPENPPPYPGPGPTAPYPPYPQQPMGPMGPMGAPPPQGYPYPPPQGYPYQGYPQYGWQGGPQEPPKTTVYVVEDQRRDDLGPSTCLTACWTALCCCCLWDMLT
notes: recombinant mouse CYSTM1 protein, 104 amino acid long glucoregulatory peptide
For B2, the “glucose (2-NBDG) uptake” value in [2] and in experiment [7] was “concentration-dependent increase” each time. For the same molecule, the “insulin secretion induced by CYSTM1 in presence of exendin (9-39)” value in experiment [3] is reported as “not affected by the presence of exendin (9-39)”. Besides, the circulating insulin entry in [4] (setting [11]) and in experiment [4] (setting [12]) was “increase circulating insulin” in each case. Besides, the “glucose levels (GTT)” value in [4] (setting [11]) and in experiment [4] (setting [12]) was “lower glucose levels” throughout. Moreover, the insulin secretion result in experiment [5], in experiment [6] and in experiment [8] was “concentration-dependent increase in insulin secretion” in each case. Moreover, the “feeding blood glucose level” value in experiment [9] (1 mg/kg oral daily) is recorded as “significantly lower feeding blood glucose level”; in [10] (1 mg/kg oral gavage once daily, HFD mice, vs saline) it was “significantly reduced feeding blood glucose level”. Further, the “glucose regulation by IPGTT” value in experiment [9] (day 15, 1 mg/kg oral daily) was “protects from STZ-induced glucose dysregulation”. In addition, the fasting insulin concentration entry in experiment [10] (day 10, 1 mg/kg oral gavage once daily, HFD mice, vs saline) is recorded as “decreased level of fasting insulin concentration”. Also, in experiment [10] (day 20, 1 mg/kg oral gavage once daily, vs control HFD-fed mice), the “glucose homeostasis by IPGTT” value is on record as “better glucose homeostasis”.
